# T1: unmodified Dictyostelium Skp1A (Dictyostelium discoideum), P52285
# T1 chain: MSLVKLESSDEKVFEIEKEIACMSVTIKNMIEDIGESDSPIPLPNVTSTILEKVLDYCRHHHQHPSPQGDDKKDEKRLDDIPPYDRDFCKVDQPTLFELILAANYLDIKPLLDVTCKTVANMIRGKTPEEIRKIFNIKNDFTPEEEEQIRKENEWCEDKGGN
# Molecular target: T1, unmodified Dictyostelium Skp1A …
# Experiment: SAXS
# Details: remark: other sources report otherwise
binder,measurement,value
"unmodified Dictyostelium Skp1A, P52285 1-162 (natural protein) MSLVKLESSDEKVFEIEKEIACMSVTIKNMIEDIGESDSPIPLPNVTSTILEKVLDYCRHHHQHPSPQGDDKKDEKRLDDIPPYDRDFCKVDQPTLFELILAANYLDIKPLLDVTCKTVANMIRGKTPEEIRKIFNIKNDFTPEEEEQIRKENEWCEDKGGN",stoichiometry N,2

# Reference: publication PMC3985704
